Tests used:
CENP-S-EGFP (human) = CENP-S-EGFP (human) (UniProt Q8N2Z9); test: FRET or BRET; acceptor photobleaching FRET at centromeres in living cells; EGFP donor, mCherry acceptor bleached in a 4-10 µm^2 region; E_FRET against EVAR of an unbleached region, Mann-Whitney rank-sum test
EGFP-CENP-S (human) = EGFP-CENP-S (human) (UniProt Q8N2Z9); test: as above

“CENP-T-mCherry (from UniProt Q96BT3 1-561) (natural protein)” showed an E FRET (CENP-S-EGFP (human)) of 4.15, a ΔE (E FRET – EVAR) (CENP-S-EGFP (human)) of 4.5 and an E FRET (EGFP-CENP-S (human)) of 3. For the same substance, the ΔE (E FRET – EVAR) (EGFP-CENP-S (human)) was 4.5.
